Earlier results in paper PMC3430373.

Target: S10:NusB complex (Escherichia coli) (UniProt C4ZUH6)
Experiment: NMR

NusG CTD (from UniProt P0AFG0)
Kd: 50 µM
